Columns and labels:
[1] = target: FMDV 혈청형 O (진천주) (Foot and Mouth Disease Virus serotype O (Jincheon strain)); test: cell-based or functional assay
[2] = target: FMDV 혈청형 O (진천주) (Foot and Mouth Disease Virus serotype O (Jincheon strain))

B1: 단클론항체 8B87 (antibody, V domains shown)
VH: KKPGETVKISCKASGYTFTNYGVSWVKQVPGKGLKWMGWINTNTGKPAYADDFKGRFAFYLDTSASTAYLQISNLKNEDEATYFCVIYHDYLWFAYWGQGTLITVSA
VL: NIVLTQSPASLAVSLGQRATISCRASNSVDTYGNSFMHWYQQRPGQPPKLLIFLASDLESGVPGRFRGSGSRTDFTLTIDPVEADDAATYYCQQNYADPWTFGGGTKLEIK
With B1 the VNT titer [1] was 64 and the ELISA screening plate (O.D 450nm) [2] was 2.23 O.D 450nm.
